The values that follow come from patent US20250270301A1 (GEN2 NEUROSCIENCE, published 2025).

The labels stand for the following.
B1: #44_VH4VK4_H16-H04/pVL (antibody, V domains shown)
VH: QVQLQESGPGLVKPSETLSLTCTVSGIDLSSYAMAWVRQAPGKGLEWIGAIDRAGNTFYASWVKGRFTISKDTSKTTVDLQMTSLTAEDTATYFCARDAGSFHPWGQGTLVTVSS
VL: DIQMTQSPSSLSASVGDRVTITCQASQSVYDNYLAWYQQKPGQPPKLLIHAASNLASGVPSRFSGSGSGTEFTLTISSLQPDDFATYYCLGEFSCTTTDCNVFGGGTKVEIK
notes: also called Clone VH4_H16_H04; #44_VH4_H16-H04
B2: #44_VH4VK4_H06-H01/pVL (antibody, V domains shown)
VH: QVQLQESGPGLVKPSETLSLTCTVSGIDLSSYAMAWVRQAPGKGLEWIGVIDAAGHTFYASWVKGRFTISKDTSKTTVDLQMTSLTAEDTATYFCARDVGSFDVWGQGTLVTVSS
VL: DIQMTQSPSSLSASVGDRVTITCQASQSVYDNYLAWYQQKPGQPPKLLIHAASNLASGVPSRFSGSGSGTEFTLTISSLQPDDFATYYCLGEFSCTTTDCNVFGGGTKVEIK
notes: also called H06-01/pVL; Clone VH4H_06_H01
B3: #44_VH4VK4_H06-H02/pVL (antibody, V domains shown)
VH: QVQLQESGPGLVKPSETLSLTCTVSGIDLSSYAMAWVRQAPGKGLEWIGVIDAAGHTFYASWVKGRFTISKDTSKTTVDLQMTSLTAEDTATYFCARDRGDFDVWGQGTLVTVSS
VL: DIQMTQSPSSLSASVGDRVTITCQASQSVYDNYLAWYQQKPGQPPKLLIHAASNLASGVPSRFSGSGSGTEFTLTISSLQPDDFATYYCLGEFSCTTTDCNVFGGGTKVEIK
notes: also called H06-02/pVL; Clone VH4_H06_H02
B4: #44_VH4VK4_H06-H04/pVL (antibody, V domains shown)
VH: QVQLQESGPGLVKPSETLSLTCTVSGIDLSSYAMAWVRQAPGKGLEWIGVIDAAGHTFYASWVKGRFTISKDTSKTTVDLQMTSLTAEDTATYFCARDAGSFHPWGQGTLVTVSS
VL: DIQMTQSPSSLSASVGDRVTITCQASQSVYDNYLAWYQQKPGQPPKLLIHAASNLASGVPSRFSGSGSGTEFTLTISSLQPDDFATYYCLGEFSCTTTDCNVFGGGTKVEIK
notes: also called H06-04/pVL; Clone VH4_H06_H04
B5: #44_VH4_H07/L2 (antibody, V domains shown)
VH: QVQLQESGPGLVKPSETLSLTCTVSGIDLSSYAMAWVRQAPGKGLEWIGAIDAAGNTFYASWVKGRFTISKDTSKTTVDLQMTSLTAEDTATYFCARDSGAFDPWGQGTLVTVSS
VL: DIQMTQSPSSLSASVGDRVTITCQASQSVYDNYLAWYQQKPGQPPKLLIHAASNLASGVPSRFSGSGSGTEFTLTISSLQPDDFATYYCLGEFSCQDTDCNVFGGGTKVEIKR
notes: also called Clone VH4_H07/L2
B6: #44_VH4_H06/L2 (antibody, V domains shown)
VH: QVQLQESGPGLVKPSETLSLTCTVSGIDLSSYAMAWVRQAPGKGLEWIGVIDAAGHTFYASWVKGRFTISKDTSKTTVDLQMTSLTAEDTATYFCARDSGTFDPWGQGTLVTVSS
VL: DIQMTQSPSSLSASVGDRVTITCQASQSVYDNYLAWYQQKPGQPPKLLIHAASNLASGVPSRFSGSGSGTEFTLTISSLQPDDFATYYCLGEFSCQDTDCNVFGGGTKVEIKR
notes: also called Clone VH4_H06/L2
B7: #44_VH4_H14/L2 (antibody, V domains shown)
VH: QVQLQESGPGLVKPSETLSLTCTVSGIDLSSYAMAWVRQAPGKGLEWIGAIDSAGSTFYASWVKGRSTISKDTSKTTVDLQMTSLTAEDTATYFCARDSGAFDPWGQGTLVTVSS
VL: DIQMTQSPSSLSASVGDRVTITCQASQSVYDNYLAWYQQKPGQPPKLLIHAASNLASGVPSRFSGSGSGTEFTLTISSLQPDDFATYYCLGEFSCQDTDCNVFGGGTKVEIKR
notes: also called Clone VH4_H14/L2
B8: #44_VH4_H09/L2 (antibody, V domains shown)
VH: QVQLQESGPGLVKPSETLSLTCTVSGIDLSSYAMAWVRQAPGKGLEWIGAIDARGNTFYASWVKGRFTISKDTSKTTVDLQMTSLTAEDTATYFCARDSGAFDPWGQGTLVTVSS
VL: DIQMTQSPSSLSASVGDRVTITCQASQSVYDNYLAWYQQKPGQPPKLLIHAASNLASGVPSRFSGSGSGTEFTLTISSLQPDDFATYYCLGEFSCQDTDCNVFGGGTKVEIKR
notes: also called Clone VH4_H09/L2
B9: #44_VH4_H13/L2 (antibody, V domains shown)
VH: QVQLQESGPGLVKPSETLSLTCTVSGIDLSSYAMAWVRQAPGKGLEWIGAIDSAGNTFYASWVKGRFTISKDTSKTTVDLQMTSLTAEDTATYFCARDSGAFDPWGQGTLVTVSS
VL: DIQMTQSPSSLSASVGDRVTITCQASQSVYDNYLAWYQQKPGQPPKLLIHAASNLASGVPSRFSGSGSGTEFTLTISSLQPDDFATYYCLGEFSCQDTDCNVFGGGTKVEIKR
notes: also called Clone VH4_H13/L2
B10: #44 VH3VK2 humanised hIgG1 (antibody, V domains shown)
VH: QVQLQESGPGLVKPSETLSLTCTVSGIDLSSYAMAWVRQAPGKGLEWIGCIDRRGGTFYASWVKGRFTISKTSTTVDLQMTSLTAEDTATYFCARDSGAFDPWGQGTLVTVSS
VL: QIVMTQSPSSLSASVGDRVTITCQASQSVYDNYLAWYQQKPGQPPKLLIHAASNLASGVPSRFKGSGSGTEFTLTISSLQPDDFATYYCLGEFSCTTTDCNVFGGGTKVEIK
notes: also called VH3Vκ2
B11: #44 VH3VK1 humanised hIgG1 (antibody, V domains shown)
VH: QVQLQESGPGLVKPSETLSLTCTVSGIDLSSYAMAWVRQAPGKGLEWIGCIDRRGGTFYASWVKGRFTISKTSTTVDLQMTSLTAEDTATYFCARDSGAFDPWGQGTLVTVSS
VL: QIVMTQSPSSLSASVGDRVTITCQASQSVYDNYLAWYQQKPGQPPKLLIHAASNLASRVPSRFKGSGSGTEFTLTISSLQCDDFATYYCLGEFSCTTTDCNVFGGGTEVVIK
notes: also called VH3Vκ1
B12: #44 VH6VK3 humanised hIgG1 (antibody, V domains shown)
VH: QVQLQESGPGLVKPSETLSLTCTVSGIDLSSYAMSWVRQAPGKGLEWVSCIDRRGGTFYASWVKGRFTISRDNSKNTLDLQMTSLTAEDTATYYCARDSGAFDPWGQGTLVTVSS
VL: DIQMTQSPSSLSASVGDRVTITCQASQSVYDNYLAWYQQKPGQPPKLLIHAASNLASGVPSRFKGSGSGTEFTLTISSLQPDDFATYYCLGEFSCTTTDCNVFGGGTKVEIK
notes: also called VH6Vκ3
B13: #44 VH6VK4 humanised hIgG1 (antibody, V domains shown)
VH: QVQLQESGPGLVKPSETLSLTCTVSGIDLSSYAMSWVRQAPGKGLEWVSCIDRRGGTFYASWVKGRFTISRDNSKNTLDLQMTSLTAEDTATYYCARDSGAFDPWGQGTLVTVSS
VL: DIQMTQSPSSLSASVGDRVTITCQASQSVYDNYLAWYQQKPGQPPKLLIHAASNLASGVPSRFSGSGSGTEFTLTISSLQPDDFATYYCLGEFSCTTTDCNVFGGGTKVEIK
notes: also called VH6Vκ4
B14: #44 VH6VK2 humanised hIgG1 (antibody, V domains shown)
VH: QVQLQESGPGLVKPSETLSLTCTVSGIDLSSYAMSWVRQAPGKGLEWVSCIDRRGGTFYASWVKGRFTISRDNSKNTLDLQMTSLTAEDTATYYCARDSGAFDPWGQGTLVTVSS
VL: QIVMTQSPSSLSASVGDRVTITCQASQSVYDNYLAWYQQKPGQPPKLLIHAASNLASGVPSRFKGSGSGTEFTLTISSLQPDDFATYYCLGEFSCTTTDCNVFGGGTKVEIK
notes: also called VH6Vκ2

T1 sequence (P10636 other isoform, or with tags, fused parts or gaps limits assumed): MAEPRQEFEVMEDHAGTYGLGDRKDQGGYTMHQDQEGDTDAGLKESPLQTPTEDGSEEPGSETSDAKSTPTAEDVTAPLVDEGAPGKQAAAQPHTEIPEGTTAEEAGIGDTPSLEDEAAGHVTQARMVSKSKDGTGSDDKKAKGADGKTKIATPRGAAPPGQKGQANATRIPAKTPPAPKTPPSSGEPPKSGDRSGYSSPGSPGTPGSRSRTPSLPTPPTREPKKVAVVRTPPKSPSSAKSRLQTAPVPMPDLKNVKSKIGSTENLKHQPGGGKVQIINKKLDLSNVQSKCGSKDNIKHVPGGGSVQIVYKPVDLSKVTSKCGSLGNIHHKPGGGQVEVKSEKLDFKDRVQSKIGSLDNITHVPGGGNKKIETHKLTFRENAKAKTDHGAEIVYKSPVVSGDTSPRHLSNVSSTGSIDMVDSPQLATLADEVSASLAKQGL
T2 sequence (P02769 25-607 limits assumed): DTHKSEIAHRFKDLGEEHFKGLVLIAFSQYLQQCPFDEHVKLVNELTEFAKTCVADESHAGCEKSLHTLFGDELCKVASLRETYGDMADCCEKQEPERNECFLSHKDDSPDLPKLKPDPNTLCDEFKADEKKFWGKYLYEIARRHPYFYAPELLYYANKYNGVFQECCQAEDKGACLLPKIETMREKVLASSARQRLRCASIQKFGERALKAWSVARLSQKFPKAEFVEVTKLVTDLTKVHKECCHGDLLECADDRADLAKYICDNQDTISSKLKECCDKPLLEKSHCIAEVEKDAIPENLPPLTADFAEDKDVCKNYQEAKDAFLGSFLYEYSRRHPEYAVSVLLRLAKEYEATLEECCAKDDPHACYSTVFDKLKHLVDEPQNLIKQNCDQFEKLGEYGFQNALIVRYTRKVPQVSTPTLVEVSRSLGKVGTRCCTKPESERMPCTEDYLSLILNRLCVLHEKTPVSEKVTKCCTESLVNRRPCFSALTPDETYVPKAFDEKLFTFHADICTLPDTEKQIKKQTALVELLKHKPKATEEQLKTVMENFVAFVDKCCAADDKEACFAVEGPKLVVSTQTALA

The first test addresses T1, full length recombinant human 2N4R tau (human, UniProt P10636 1-758).
T1 construct: bought from rPeptide; pHrodo Red maleimide-labelled where it stands in uptake assays; also called tau1-441; full length tau
In words: SPR SCK, IgG on Protein A, tau in flow.
As to B1, the “Fold change (KD, to pVH/pVL)” value was determined as 7.88; the Kd came to 0.835 nM; the koff was found to be 0.00417 s⁻¹; the kon is 4.99e+06 M⁻¹ s⁻¹.
The corresponding values for B2 are 1.71, 3.85 nM, 0.0121 s⁻¹ and 3.15e+06 M⁻¹ s⁻¹.
For the molecule B3, the “Fold change (KD, to pVH/pVL)” value was 7.73; the dissociation constant (Kd) was found to be 0.851 nM; the koff came to 0.00489 s⁻¹; the on-rate constant (kon) was determined as 5.75e+06 M⁻¹ s⁻¹.
In the case of B4, the “Fold change (KD, to pVH/pVL)” value stood at 9.11; the Kd worked out at 0.722 nM; the off-rate constant (koff) is 0.00443 s⁻¹; the kon turned out to be 6.14e+06 M⁻¹ s⁻¹.
The matching figures for B5: 0.26, 24.9 nM, 0.0124 s⁻¹ and 497000 M⁻¹ s⁻¹.
The matching figures for B6: 3.54, 1.86 nM, 0.00841 s⁻¹ and 4.52e+06 M⁻¹ s⁻¹.
For B7, the “Fold change (KD, to pVH/pVL)” value stood at 0.52; the Kd stood at 12.6 nM; the koff was 0.0161 s⁻¹; the kon was found to be 1.28e+06 M⁻¹ s⁻¹.
With B8, the “Fold change (KD, to pVH/pVL)” value worked out at 0.45; the dissociation constant (Kd) was 14.6 nM; the koff was 0.0106 s⁻¹; the kon turned out to be 728000 M⁻¹ s⁻¹.
On to B9, for which the “Fold change (KD, to pVH/pVL)” value came out at 0.28; the Kd is 23.5 nM; the koff stood at 0.00844 s⁻¹; the association rate constant (kon) is 358000 M⁻¹ s⁻¹.

For another test, the target named is T1, full length recombinant human 2N4R tau. In words: SPR SCK, IgG on Protein A, tau in flow. The source holds these as a separate data set. How it is done: 21.5 Assessment of antibody binding to tau (Biacore SCK analysis): Binding of anti-tau hIgG1 to full length recombinant 2N4R tau (Rpeptide; SEQ ID NO: 2) was assessed using the Biacore T200 (GE Healthcare, Chicago, IL, USA) running Biacore T200 Evaluation Software V2.0.1. hIgG1 were immobilised on a Protein A capture sensor chip in running buffer (HBS-EP+ buffer containing 1 mg/mL BSA) at 25° C., captured to ˜50 RU at 10 μL/min. For single-cycle kinetics experiments, recombinant 2N4R tau was flowed at concentrations ranging from 1.25 nM to 10 nM (2-fold dilutions) with an association time of 60 s and a dissociation time of 200 s. Curves were compared to a reference cell that was mock immobilized (no antibody present).
Take B10: the Kd worked out at 7.64 nM, the “Relative KD (to VH0VK0)” value was determined as 1.99, the koff was determined as 0.0356 s⁻¹ and the kon stood at 4.66e+06 M⁻¹ s⁻¹.
With B11, the dissociation constant (Kd) stood at 4.35 nM, the “Relative KD (to VH0VK0)” value was determined as 1.14, the koff is 0.0121 s⁻¹ and the on-rate constant (kon) came out at 2.79e+06 M⁻¹ s⁻¹.

Another test has as its target T2, Bovine serum albumin (bovine, UniProt P02769 25-607).
T2 construct: also called BSA
In words: ELISA on 1% BSA, HEK supernatant, anti-human IgG-HRP, n=1. How it is done: FIG. 7. A panel of humanised anti-tau IgG bind to full length recombinant 2N4R tau in an ELISA format. Supernatants from HEK cells transiently transfected with each IgG clone were tested at 1:100 for binding to full length recombinant 2N4R tau (solid bars). […] Binding of anti-tau hIgG1 was detected using an HRP-conjugated anti-human secondary antibody and data are shown from a representative experiment (n=1 replicate).
Antigen was removed from wells and the plates were then blocked for 1 hour at RT with 5% dried milk in 1×TBS. Blocking solution was removed, HEK293 cell supernatant (1:100 in 1% BSA/1×TBS) was added to relevant wells, and plates were incubated for 1 hour at RT with gentle shaking. Plates were then washed four times with TBS/0.1% Tween (TBST). Goat anti-human IgG-HRP antibody (Thermo Fisher Scientific, Waltham, MA, USA), diluted 1:2000 in 5% milk/TBS, was added to each well and plates were incubated for 1 hour at RT with gentle shaking before being washed four times with TBST. 3,3′,5,5′-tetramethylbenzidine (TMB) ELISA solution was added to each well and plates were incubated for 15 mins at RT. An equal volume of 1 M sulfuric acid was added to each well and OD was measured at 450 nm.
(In general: An ELISA detects its analyte on a solid surface through an enzyme-linked reagent.)
Regarding B10, the binding result is listed as “no binding (tested: supernatant 1:100)”.
On the same count and under the same terms, the entry for B12 is “no binding (tested: supernatant 1:100)”.
Still for that read-out and setting: next, B13: “no binding (tested: supernatant 1:100)”; B11: “no binding (tested: supernatant 1:100)”; B14: “no binding (tested: supernatant 1:100)”.

What is called Kd is a measure of binding affinity in units of concentration. One may read the koff as the rate constant with which the complex falls apart. The term kon denotes the second-order rate constant of association.
